We go through one molecule from patent publication US20220033498A1 (UNIVERSITY OF TOKYO, published 2022).

The experiment concerns the target T1, mouse CHL1 protein expressed on the surface of HEK293 cells transfected with mChl1 pIRES2-EGFP (mouse, UniProt P70232 26-1209).
T1 construct: whole, on cells; also called CHL1 protein on cell surface; cell adhesion molecule L1-like
T1 sequence (looked up): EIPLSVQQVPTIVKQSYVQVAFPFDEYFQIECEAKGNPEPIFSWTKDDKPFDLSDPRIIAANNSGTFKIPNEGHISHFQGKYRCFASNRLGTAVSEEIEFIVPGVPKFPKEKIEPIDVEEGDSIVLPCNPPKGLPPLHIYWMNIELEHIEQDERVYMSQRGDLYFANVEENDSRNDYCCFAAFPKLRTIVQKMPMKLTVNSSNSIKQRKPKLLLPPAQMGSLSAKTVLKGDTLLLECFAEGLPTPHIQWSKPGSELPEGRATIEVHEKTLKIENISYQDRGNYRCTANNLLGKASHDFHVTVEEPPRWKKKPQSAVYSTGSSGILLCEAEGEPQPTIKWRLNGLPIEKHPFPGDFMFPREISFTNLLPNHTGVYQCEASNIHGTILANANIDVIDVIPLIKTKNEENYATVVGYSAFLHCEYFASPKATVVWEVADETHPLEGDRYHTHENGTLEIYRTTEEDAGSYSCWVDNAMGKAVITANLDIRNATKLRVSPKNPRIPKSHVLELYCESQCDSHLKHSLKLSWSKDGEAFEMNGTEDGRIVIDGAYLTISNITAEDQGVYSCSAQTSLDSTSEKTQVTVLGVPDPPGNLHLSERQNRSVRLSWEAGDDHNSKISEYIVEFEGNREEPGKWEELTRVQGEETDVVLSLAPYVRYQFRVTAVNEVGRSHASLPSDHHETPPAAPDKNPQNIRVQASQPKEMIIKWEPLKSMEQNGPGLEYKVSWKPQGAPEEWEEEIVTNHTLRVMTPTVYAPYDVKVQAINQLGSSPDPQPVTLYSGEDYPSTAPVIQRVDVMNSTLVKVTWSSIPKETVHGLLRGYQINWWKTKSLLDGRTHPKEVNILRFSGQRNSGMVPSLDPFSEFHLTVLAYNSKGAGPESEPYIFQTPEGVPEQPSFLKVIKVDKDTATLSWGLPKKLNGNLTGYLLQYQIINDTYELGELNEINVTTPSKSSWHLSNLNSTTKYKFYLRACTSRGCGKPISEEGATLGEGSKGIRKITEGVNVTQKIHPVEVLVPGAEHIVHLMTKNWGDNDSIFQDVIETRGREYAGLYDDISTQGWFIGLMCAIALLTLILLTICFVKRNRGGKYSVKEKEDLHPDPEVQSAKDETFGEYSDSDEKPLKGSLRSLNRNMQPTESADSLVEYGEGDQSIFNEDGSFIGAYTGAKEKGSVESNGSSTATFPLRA
Description: FACS: hybridoma culture supernatant on HEK293 cells transfected with mChl1 pIRES2-EGFP, detected with APC goat anti-rat IgG. From the text:
Mouse CHL1 gene (mChl1) was cloned into pIRES2-EGFP vector by PCR using Phusion (Thermo Fisher Scientific Inc.: F530L). Y3Ag cells ([…]) were transfected with mChl1 pIRES2-EGFP by electroporation, and four 7-week-old female or male SD rats (CLEA Japan, Inc.) were immunized from their footpads and tail roots with a mixture of the cells with TiterMax Gold (Funakoshi Co., Ltd.: G-1X5). After 3 to 8 immunizations, inguinal lymph nodes or iliac lymph nodes were isolated, and their cells were fused with AG8 myeloma cells using PEG1500 (Roche: 10783641001). The obtained hybridomas were screened in HAT medium (DS Pharma Biomedical Co., Ltd.: 16-808-49) or HT medium (DS Pharma Biomedical Co., Ltd.: 16-809-49) under conditions supplemented with BM condimed H1 (Roche: 11088947001). The culture supernatants were collected and reacted with HEK293 cells transfected with mChl1 pIRES2-EGFP. Then, antibody titers in the supernatants were studied by FACS analysis using APC goat anti-Rat IgG (BioLegend, Inc.: 405407).

B1: 336 antibody, a monoclonal antibody to the CHL1 protein (antibody, V domains shown)
VH: EVQLQQSGPELQRPGASVKLSCKASGYPFTEYYIYWMKQRPKQGLELIGRIDPEDGSTDYVEKFKNKATLTADTSSNTAYMQLSSLTSEDTATYFCARALQGFAYWGQGTLVTVSS
VL: EIVLTQSPTTMAASPGEKVTLTCRASSSVSYMYWYLQKSGTSPKLWIYDTSRLASGIPDRFSGSGSGTSYSLTISSMETEDTATYYCQQGGSYPYTFGAGTKLELKR
notes: Rat monoclonal antibody from SD rats immunized with Y3Ag cells expressing mouse CHL1; Used as hybridoma culture supernatant in the FACS screen, and as protein G-purified antibody from ascitic fluid in later work
Take B1: the binding result is recorded as “binds”.
